Earlier results, collected in PMC6767322.

Target: IL-2Rβ/γc (Homo sapiens) (UniProt P14784)
Sequence of UniProt P14784 (P14784 27-240, chain 1 of 2): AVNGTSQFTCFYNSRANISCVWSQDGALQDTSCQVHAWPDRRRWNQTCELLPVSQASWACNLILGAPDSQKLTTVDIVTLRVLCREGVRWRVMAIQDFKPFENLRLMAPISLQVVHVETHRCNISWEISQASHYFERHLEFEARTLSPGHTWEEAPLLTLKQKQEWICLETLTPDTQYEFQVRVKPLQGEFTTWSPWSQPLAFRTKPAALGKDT
Sequence of UniProt P14784 (P31785 23-262, chain 2 of 2, further chain): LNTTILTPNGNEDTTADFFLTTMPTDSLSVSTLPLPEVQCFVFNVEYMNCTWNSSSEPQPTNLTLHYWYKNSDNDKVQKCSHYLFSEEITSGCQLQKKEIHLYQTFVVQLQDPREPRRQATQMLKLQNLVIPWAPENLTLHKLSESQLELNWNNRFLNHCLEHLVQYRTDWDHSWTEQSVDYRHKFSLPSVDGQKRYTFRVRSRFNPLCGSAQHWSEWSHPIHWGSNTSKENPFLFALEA

IL-15 (from UniProt P40933)
Kd: 30 nM
